Test: yeast display, Sf9 membrane polyspecificity reagent, FACS + sequencing; frameworks hold sequencing errors
Procedure, shortened: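 Nanobodies came from a synthetic yeast display library in Saccharomyces cerevisiae BJ5465, induced with galactose for 36–48 hours and stained for 1 hour at 4 °C with 10% biotinylated, detergent-solubilized Sf9 membrane reagent. Cells were enriched on streptavidin microbeads and then FACS-sorted, with low and high (top ~1%) gates set on anti-HA fluorescence for expression and streptavidin fluorescence for reagent binding. Each polyreactivity label reflects the gate a clone came from. Genes were amplified by colony PCR, sequenced by MiSeq 2 × 250 and filtered by CDR length.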

Row | Sequence | polyreactivity (PSR sort gate)
1 | QVQLVESGGGLVQAGGSLRLSCAASGFTFGLNVMGWYRQAPGKERELVAAISQSGGSTYYADSVKGRFTISRDNAKNTVYLQMNSLKPEDTAVYYCAVDYYPNPSYTVYDDEYWGQGTQVTVSS | low polyreactivity
2 | QVQLVESGGGLVQAGGSLRLSCAASGSIFEWNDMGWYRQAPGKEREFVAAITSTDDGTYYADSVKGRFTISRDNAKNTVYLQMNSLKPEVTAVYYCAVDYWDVPYYWGQGTQVTVSS | low polyreactivity
3 | QVQLVESGGGLVQAGGSLRLSCAASGIFVSYAMGWYRQAPGKDRAVVAAISSSGGSTYYADSVKGRFTISRDNAKNTVYLQMNSLKPEDTAVYYGAARLVKSQTTVQGYYWGQGTQVTVSS | high polyreactivity
4 | QVQLVESGGGLVQAGGSLRLSCAASGSTFTTYAMGWYRQAPGKERELVAAISIRGGRTYYADSVKGRFTISRDNAKNTVYLQMNSLKPEDTAVYYCAAETYYAVSTGYDFDYWGQGTQVTVSS | high polyreactivity
5 | QVQLVESGGGLVQAGGSLRLSCAASGFSFSYYAMGWYRQAPGKERELVAAINYSGTSTYYADSVKGRFTISRDNAKNTVYLQMKSLKPEDTAVYYCAADLPYYPYLYDYWGQGTQVTVSS | low polyreactivity
6 | QVQLVESGGGLVQAGGSLRLSCAASGSTFGNYAMGWYRQAPGKEMELVAAISTSGDSTYYADSVKGRFTISRDNAKYTVYLQMNSLKPEDSAVYYCKARGIATGNRHEYWGQGTQVTVSS | low polyreactivity
7 | QVQLVESGGGLVQAGGSLRLSCAASGRSFTPYARGWYRQAPGKERELVAAISTIGGTTYADSVKGRFTISRDNAKNTVYLQRNSLKPEDTAVYYCAAERPPYPGNGRDYWGQGTQVTVSS | high polyreactivity
8 | QGQLVESGGGLVQAGGSLRLSCAASGRTFYRYAMGWYRQAPGNERELVASMNRGGSTYYADSVKGRFTFSRDNAKNTVYLQMNSLKPEDTAVYYCACYCYCYRGQGTQVTVSS | low polyreactivity
9 | QVQLVESGGGLVQAGGSLRLSCAASGSTFYVNAMGWYRQAPGKERELVAAISSGGSTYYADSVKGRFTISRDNAKNTVYLQMNSLKPEDTAVYYCAAASPWGSDYDYWGQGTQVTVSS | low polyreactivity
10 | QVQLVESGGGLVQAGGRLRLSCAASGRTIANYAMGWYRQAPGKERELVAAISFSTVSTYYADSVKGRFTISRDNAKNTVYLQMNSLKPEDTAVYYCAARRLGYYRKVKELDYWGQGTQVTVSS | high polyreactivity
11 | QVQLVESGGGLVQAGGSLRLRCAASGSIFNSYAMGWYRPAPGKERELVAAISIRGTRTYYADSVKGRFTISRDNAKNTVSLQMNSLKPEDSAVSYCAADASSTEGMDFWGQGTQLTVSS | high polyreactivity
12 | QVQLVESWGGLVQAGGSLRLSCAASGRTFFYYAMGWYRQAPWKERELVAAISKSGGRTYYADSVKGRFTISRDNAKNTVYLQMNSLKPEDTAVYYCATLAQWYDRELDYWGQGTQVTVSS | high polyreactivity
13 | QVQLVESGGGLVQAGGSLRLSCAASGRTFYTYAMGWYRQAPGKERELVAAISISGSRTYYADSVKGRFTISRDNAKNTVYLQMNSLKPEDTAVYYCAADRSYWAYVFQYVSYGEDYWGQGTQVTVSS | high polyreactivity
14 | QVQLVESGGGLVQAGGRLRLSCAASGSISNRYAMGWYRQAPGKERELVAAISTGGGTTYYADSVKGRFTISRDNAKNTVYLQMNSLKPEDTAVYYCAADDWRYYRELDYWGQGTQVTVSS | low polyreactivity
15 | QVQLVESGGGLVQAGGSLRLICAASGSIFYRNAMGWYRQAPGKERELVAVITDGGTTSYADSVKGRFTISRDNAKNTVYLQMNSLKPEDTAVYYCAADRQPVYPSLGVYWDYGHDYWGQGTQVTVSS | low polyreactivity
16 | QVQLVESGGGLVQAGGSLRISCAASGIILSDNAMGWYRQAPGKEREFVAAITGSGGSTYYADSVKGRFTISRDNAKNTVYLQMNSLKPEDTAVYYCAADGPYGYYYGHYGYWGQGTQVTVSS | low polyreactivity
17 | QVQLVESGGGLVQAGGSLRLSCAASGSILPTNAMGWYRQAPGKERELGASITRSGGSTYYADSVKGRFTISRDNAKNTVYLQMNSLKPEDTAVYYCNARGFTRYTVGRNYWGQGTQVTVSS | high polyreactivity
18 | QVQLLESGGGLVQAGGSLRLCCASSGYIFWGANMGWYRQAPGKEREFVAAIGHGTVTCYADSVKGRFTISRDNAKNTVYLQMNSLKPEDTAVYNCAAYSDVRKPHRYWGQGTQVTVVS | high polyreactivity
19 | QVQLVESGGGLVQAGGSLRLSCAASGSIFYKNAMGWYRQAPGKVRELVAAITGSGGRTYYADSVKGRFTISRDNAKNTVYLQMNSLKPEDTAVYYCNTDPSPRYRYDYWGQGTQVTVSS | high polyreactivity
20 | QVQLVESGGGLVQAGGSLRLSCAASGRTFFRYVMGWYRQAPGKERELVAAISRSGGSTYYADSVKGRFTISRDNAKITVYLQMNSLKTEDTAVYYCNSVARSTVVPTEFDYWGQGTQVTVSS | high polyreactivity
21 | QVQLVESGGGLVQAGGSLSLSCAASGSTFVPYAMGWYRPAPGKERELVAAISSTGGSTYYADSVKGRFTISRDNAKNTVYLQMNSLKAEDTAVYYCNALAKIRYGQINKGYYWGQGTQVTVSS | high polyreactivity
22 | QVQLVESGGGLVQAGGSLRLSCAASGSTFKYYAMGWYRQAPGKERELVAAITWRGGSTYYADSVKGRFTISRDNAKNTVYLQMNSLKPEDTAVYYCNRAYLYAYRSWWETYLRGDYWGQGTQVTVSS | high polyreactivity

Row | Sequence | polyreactivity (PSR sort gate)
23 | QVQLVESGGGLVQAGGSLRLSCAASVYTIGLYAMGCYRQAPGKEMELVAAMSWSGGSTYYADSVKGPFTISRDNAKKTVYLQMNSLKPEDTAVYYCAAVPYFSLEMGYWGQGTQVTVSS | low polyreactivity
24 | QVQLVESGGGLVQAGGSLRLSCAASGIIFGYNAMGWYRQAPGKERELVAAISYGGGRSYYADSVKGRFTISRDNAKNTVYFQMNSLKPEDTAVYYCAAQYFASRSYGYDYWGQGTQVTVSS | high polyreactivity
25 | QVQLVESGGGLVQAGGSLRLSCAPSGFIFGLYVMGWYRQAPGKERELVAAITTSVGSTYYADSVKGRFTISRDNAKNTVYLQMNSLKPEDTAVYYCAKTSGTIDYDYWGQGTQVTVSS | low polyreactivity
26 | QVQLVESGGGLVQAGGSLRLSCAASGIIFLTHAMGWYRQAPGKERELVAAITAIGGSTYYADSVKGRFTLSRDNAMNTVYLLMISLKPEDTADYYCAADFSYVYYLYDFWGQGTKVTVSS | low polyreactivity
27 | QVQLVESGGGIVQACGSLRLSCAASGFTFYVYAMGWYRKAPGKEREFVAAISKSGGRTYYADSVMGRFTISRDNAKNTVYLQMNSLKPEDTAVYYCGRYNRYQIIYPGFDYWGQGTQVTVSS | high polyreactivity
28 | QVQLVESGGGLVQAGGSLRLSCAASGRIFGYYAMGWYRQAPGKERELVAAITSGGRTNYADSVKGRFTISRDNAKNTVYLQMNSLKPEDTAVYYCAKEYPRYSSPYDYWGQGTQVTVSS | low polyreactivity
29 | QVQLVESGGGLVQAGGRLRLSCAASGRTFRYYGMGWYRQAPWKERELVAAISWSGGSTYYADSVKGRFTISRDNAKNTVYLQMNSLTPEDTAVYYCNVDFHWQRFHHKSAAYDYWGQGTQVTVSS | high polyreactivity
30 | QVQLVEAGGGLVQAGGSLRLSCAASGRTLYPYAMGWYRQAPGKERELVAAISSRGGSTYYADSVKGRFTISRDNAKNTVYLQMNSLKPEDTAVYYCAKSYRKILSITGLVPWTDYFWGQGTQVTVSS | low polyreactivity
31 | QVQLVESGGGLVQAGGSLRLSCAASGLTFLINAMGWYRQAPGKERELVAAITSSGGSTSYADSVKGRFTISRDNAKYTVYLQMNSLKPEDTAVYYCAADLNAYPQRAYDYWGQGTQVTVSS | low polyreactivity
32 | QVQLVESGGGLVQAGGSLRLSCAASGFTFEGYAMGWYRQAPGKERELVAAISSNGGRTYYADSVKGRFTISRDNAKNTVYLQMNSLKPEDTAVYYCNARRAYSGPDYDYYHGRRYDYWGQGTQVTVSS | low polyreactivity
33 | QVQLVESGGGLVQAGGSLRLSCAASGRTFNHYAMGWYRQAPGKERELVPGITISGGSTYYADSVKGRFTISRDNAKNTVYLQMNSLKPEDTAVYYCNAVYDYYRQSNWTMDYWGQGTQVTVSS | low polyreactivity
34 | QVQLGHSGGGLVQAGGSLRLTCAPSGSIFGYKAMGWYRQAPGKERELVAAISSTGGSTYYADSVKGRFTISRDNAKNTVYLQMNSLKPEDTAVYYCAKQVADRYVYWGQGTQVTVSS | low polyreactivity
35 | QVQLVESGGGLVQAGGSLRLSCAASGSTFLYYAMGWYRQAPGKERELVAAISWSGGSTYYADSVKGRFTISRDNAKNTVYLQMKSLKPEDTAVYYCAASSPWEQSNDQFYYWGQGTQVTVSS | low polyreactivity
36 | QVQLVESGGGLVQAGGSLRLSCAASGIIFAKYAMGWYRQAPGKERELVAGISRSGGRTYYADSVKGRFTISRDNAKNTVYLQMNSLKPEDTAVYYCAAVPHGTGGWWKYDYWGQGTQVTVSS | high polyreactivity
37 | QVQLVESGGGLVQAGVSLRLSCAAYGRIFGPYAMGWYRQAPGKERELVATITWRTGSTYYADSVKGRFTISRDNAKNTVYLQMNSLKPEDTAVYYCAARYGRYSKAGDYWGLGTQVTVSS | high polyreactivity
38 | QFQLVESGGGLVQAGGSLRLSCAASGRIFTYYAMGWYRQAPGKEWELVAAISTSGGSTYYADSVKGRFTISRDNANNTVYLQMNSLKPEDTAVYYCAKVYPPRYYRDYNYWGQGTQVTVSS | high polyreactivity
39 | QVQLVESGGGLVQAGGSLRLSCAASGRIFRYNAMGWYRQAPGKERELVAAITWRGGSTYYADSVKGRFTISRDNAKNTVYLQMNSLKPEDTAVYYCNKVYSLTFEYDYWGQGTQVTVSS | high polyreactivity
40 | QVQLVESGGGLVQAGGSLRLICAASGFTFEYYAMGWYRQAPGKERELVAAISGSGVSTYYADSVKGRFTISRDNAKNTVYLQMNSLNPEDTAVYYCAALGDKYGSNRLDHYWYIWYDSWGQGTQVTVSS | low polyreactivity
41 | QVQLVESGGGLVQAGGSLRLSCAASGSIFTLYAMGWYRQAPGKERELVATINWSGGSTSYADSVKGRFTISRDNAKNTVYLQMNSLKPEDTAVYYCAADAGSYDALDYSDLLYDYWGQGTQVTVSS | low polyreactivity
42 | QVQLVESGGGLVQAGGSLRLSCAASGNTFIPNAMGWYRQAPGKERELVAAIRASGGSTYYADSVKGRFTISRDNAKNTVYLLMNSLKPEDTAVYYCNDDIWYKTYDYWGQGTQVTVSS | low polyreactivity
43 | QDQLVESGGGLVQAGGSLRLSCAASGGTFLTYAMGWYRQAPGKERELVAAISSGGSTYYADSVKGRFTISRDNAKNTVYLQMNSLKPEDTAVYYCNADPYSRFWGPDYGYWGQGTQVTVSS | low polyreactivity
